The text below walks through data of PMC4715562 (Proteins, 2015).

The data set concerns the molecule itself. The data set is described as follows: crystal structure.

B1: Xrcc4-MyH7-1590-1657 (domain or fragment, human)
chain: GGSGERKISRIHLVSEPSITHFLQVSWEKTLESGFVITLTDGHSAWTGTVSESEISQEADDMAMEKGKYVGELRKALLSGAGPADVYTFNFSKESCYFFFEKNLKDVSFRLGSFNLEKVENPAEVIRELICYCLDTTAENQAKNEHHLRVVDSLQTSLDAETRSRNEALRVKKKMEGDLNEMEIQLSHANRMAAEAQKQVKSLQSLLKDTQIQL
modifications: reductively methylated
In the case of B1, the binding result is “binds”.
